# Article PMC3526787, “Structures of Lysenin Reveal a Shared Evolutionary Origin for Pore-Forming Proteins And Its Mode of Sphingomyelin Recognition” (Structure(London, England:1993), 2012)
# B1: lysenin (natural protein)
# chain: MSAKAAEGYEQIEVDVVAVWKEGYVYENRGSTSVDQKITITKGMKNVNSETRTVTATHSIGSTISTGDAFEIGSVEVSYSHSHEESQVSMTETEVYESKVIEHTITIPPTSKFTRWQLNADVGGADIEYMYLIDEVTPIGGTQSIPQVITSRAKIIVGRQIILGKTEIRIKHAERKEYMTVVSRKSWPAATLGHSKLFKFVLYEDWGGFRIKTLNTMYSGYEYAYSSDQGGIYFDQGTDNPKQRWAINKSLPLRHGDVVTFMNKYFTRSGLCYDDGPATNVYCLDKREDKWILEVVG
# notes: A thrombin cleavage site and six histidines follow the C terminus (printed as …); also called WT lysenin; native lysenin; source: E. coli BL21, purified (Ni-NTA IMAC, SEC)
# Molecular target: the molecule itself
# Assay: 2D electron crystallography; lysenin in a lipid bilayer (liposomes containing SM); 2D crystals, trigonal array with space group p3, projection map at 14 Å
protein,measurement,value
B1,binding result,binds
